Conditions in all cases: both partners purified
In assay [1] the target is T1, Rpo1′ subunit of Sulfolobus acidocaldarius RNA polymerase (Sulfolobus acidocaldarius, UniProt P11512 1-880).
T1 construct: Rpo1′, subunit of the Sulfolobus acidocaldarius RNA polymerase (clamp, rim helices, bridge helix); Stood within the whole 13-subunit RNAP; source: part of the RNAP purified from Saci strain MW001
The assay is described as follows: cryo-EM structure; apo-RNAP cross-linked with 2 mM BS3 for 5 min at 65 °C; 20 mM Hepes pH 7.0, 200 mM NaCl, 5 mM MgCl2; map at 2.88 Å.

Assay [2] concerns the target T1, Rpo1′ subunit of Sulfolobus …. The assay is described as follows: cryo-EM structure; RNAP incubated and cross-linked (BS3, 65 °C) in presence of a 20 molar fold excess of TFS4; map at 2.61 Å.
The target of assay [3] is T2, Rpo2 subunit of Sulfolobus acidocaldarius RNA polymerase (Sulfolobus acidocaldarius, UniProt P11513 1-1126).
T2 construct: Rpo2, subunit of the Sulfolobus acidocaldarius RNA polymerase (protrusion and lobe); Stood within the whole 13-subunit RNAP; source: part of the RNAP purified from Saci strain MW001
The assay is described as above.

The target in assay [4] is T3, Rpo1″ subunit of Sulfolobus acidocaldarius RNA polymerase (Sulfolobus acidocaldarius, UniProt P11514 1-393).
T3 construct: Rpo1″, subunit of the Sulfolobus acidocaldarius RNA polymerase (upper jaw, trigger loop); Stood within the whole 13-subunit RNAP; source: part of the RNAP purified from Saci strain MW001
The assay is described as above.

For assay [5], the target named is T1, Rpo1′ subunit of Sulfolobus …. The assay is described as follows: cryo-EM structure; RNAP incubated with a 10-fold excess of RIP for 5 min at 65 °C, then cross-linked with 2 mM BS3; 20 mM Hepes pH 7.0, 200 mM NaCl, 5 mM MgCl2; map at 3.27 Å.
In assay [6] the target is T2, Rpo2 subunit of Sulfolobus …. The description is as above.

T1 sequence (P11512 whole entry): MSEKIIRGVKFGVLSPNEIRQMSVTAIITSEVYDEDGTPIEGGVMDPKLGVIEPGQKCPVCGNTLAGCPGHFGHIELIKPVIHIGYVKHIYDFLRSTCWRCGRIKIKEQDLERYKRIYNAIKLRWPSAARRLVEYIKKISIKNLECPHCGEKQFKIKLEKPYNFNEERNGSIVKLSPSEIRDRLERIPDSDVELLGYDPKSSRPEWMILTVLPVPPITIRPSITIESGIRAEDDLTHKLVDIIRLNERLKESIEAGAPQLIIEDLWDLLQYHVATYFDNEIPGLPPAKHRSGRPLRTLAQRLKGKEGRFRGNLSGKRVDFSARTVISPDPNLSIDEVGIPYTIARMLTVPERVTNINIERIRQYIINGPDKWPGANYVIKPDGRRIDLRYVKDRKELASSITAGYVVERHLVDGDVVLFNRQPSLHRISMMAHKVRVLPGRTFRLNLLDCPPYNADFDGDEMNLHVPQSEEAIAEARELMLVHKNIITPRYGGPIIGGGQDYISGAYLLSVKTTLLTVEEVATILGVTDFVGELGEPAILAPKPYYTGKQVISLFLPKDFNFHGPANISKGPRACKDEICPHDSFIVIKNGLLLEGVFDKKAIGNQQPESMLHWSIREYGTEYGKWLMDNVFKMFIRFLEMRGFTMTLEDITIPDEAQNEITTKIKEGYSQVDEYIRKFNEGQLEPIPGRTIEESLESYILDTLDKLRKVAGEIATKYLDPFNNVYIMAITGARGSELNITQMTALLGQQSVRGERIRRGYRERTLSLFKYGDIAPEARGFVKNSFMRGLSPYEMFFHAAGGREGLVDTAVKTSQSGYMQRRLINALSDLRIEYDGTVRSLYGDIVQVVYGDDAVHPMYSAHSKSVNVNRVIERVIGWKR
T2 sequence (P11513 whole entry): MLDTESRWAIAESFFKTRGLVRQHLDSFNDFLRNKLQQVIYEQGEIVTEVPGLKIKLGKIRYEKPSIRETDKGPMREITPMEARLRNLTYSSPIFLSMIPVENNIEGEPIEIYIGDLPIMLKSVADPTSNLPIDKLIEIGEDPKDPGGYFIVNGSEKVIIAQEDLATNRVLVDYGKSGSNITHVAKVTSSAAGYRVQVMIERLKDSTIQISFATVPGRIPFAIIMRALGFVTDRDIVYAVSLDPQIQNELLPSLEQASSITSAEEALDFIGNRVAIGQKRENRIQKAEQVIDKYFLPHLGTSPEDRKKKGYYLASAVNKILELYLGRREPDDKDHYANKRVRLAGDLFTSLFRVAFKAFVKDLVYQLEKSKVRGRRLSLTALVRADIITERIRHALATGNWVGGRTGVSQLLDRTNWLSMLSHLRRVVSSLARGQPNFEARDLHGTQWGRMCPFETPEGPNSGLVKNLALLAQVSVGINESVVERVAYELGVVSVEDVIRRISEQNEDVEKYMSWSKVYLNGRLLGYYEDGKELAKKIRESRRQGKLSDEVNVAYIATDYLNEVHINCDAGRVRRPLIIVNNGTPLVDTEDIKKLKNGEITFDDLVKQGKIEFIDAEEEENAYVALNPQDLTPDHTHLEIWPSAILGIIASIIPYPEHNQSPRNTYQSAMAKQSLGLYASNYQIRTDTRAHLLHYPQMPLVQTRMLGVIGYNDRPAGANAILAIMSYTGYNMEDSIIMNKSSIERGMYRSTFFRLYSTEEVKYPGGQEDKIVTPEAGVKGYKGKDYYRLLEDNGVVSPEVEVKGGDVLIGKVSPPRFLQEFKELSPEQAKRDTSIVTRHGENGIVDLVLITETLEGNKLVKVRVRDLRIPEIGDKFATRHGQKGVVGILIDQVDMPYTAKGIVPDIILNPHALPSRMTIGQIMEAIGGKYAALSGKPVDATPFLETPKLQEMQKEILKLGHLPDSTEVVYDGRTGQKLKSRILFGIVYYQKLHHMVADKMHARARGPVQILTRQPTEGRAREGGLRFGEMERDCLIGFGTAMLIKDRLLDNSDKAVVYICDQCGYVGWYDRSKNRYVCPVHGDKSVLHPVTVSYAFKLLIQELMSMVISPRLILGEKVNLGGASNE
T3 sequence (P11514 whole entry): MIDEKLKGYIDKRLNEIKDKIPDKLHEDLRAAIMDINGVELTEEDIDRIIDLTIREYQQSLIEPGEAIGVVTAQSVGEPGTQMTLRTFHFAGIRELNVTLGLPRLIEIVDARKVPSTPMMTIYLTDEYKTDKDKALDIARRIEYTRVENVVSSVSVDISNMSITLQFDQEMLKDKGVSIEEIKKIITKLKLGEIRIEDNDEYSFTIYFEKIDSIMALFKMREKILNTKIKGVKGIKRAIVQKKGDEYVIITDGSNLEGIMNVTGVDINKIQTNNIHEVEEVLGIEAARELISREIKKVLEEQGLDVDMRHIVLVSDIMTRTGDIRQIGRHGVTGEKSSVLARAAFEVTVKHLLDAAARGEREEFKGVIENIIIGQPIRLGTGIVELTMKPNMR

B1: Rpo8 subunit of Sulfolobus acidocaldarius RNA polymerase (natural protein)
chain: MMQGTCKISSIEKGALKNLYVVKMDCDNDLKIEFDITKELSIFSKDEEVTFIISREKPEYSEKDFCAHGYLFLERQQEDGSFIDEISLYGLIVKILSKNGLINSKLFKMMDHVYYCVKKKA
notes: Rpo8, subunit of the Sulfolobus acidocaldarius RNA polymerase; holds the conserved GGLLM motif; Stood within the whole 13-subunit RNAP; source: part of the RNAP purified from Saci strain MW001
For B1, the binding result in assay [1] is given as “binds”.

B2: Sso TFS4 (natural protein)
chain: MRFCPKCGSFLKVKGNKMVCSKCGYSDHDVEKVILKENVAHENDKTIIADGETIEGRVAISLCPRCGSVRAILLNKKKRLYRCMTCNFVYNI
notes: TFS4, paralogue of the transcript cleavage factor TFS; two zinc-ribbon domains ZR^N and ZR^C joined by a linker; expressed without tag; source: E. coli BL21 pLysS, purified (heat step 65 °C, HiTrap Q, Superose 12)
In the case of B2, the binding result in assay [2], in assay [3] and in assay [4] was “binds” in each case.

B3: ATV RIP (RNAP Inhibitory Protein, ORF145) of Acidianus two-tailed virus (natural protein, Acidianus two-tailed virus (ATV))
chain: MKNMLHPQKYETHVLDDLMEFYEGVIGYPEIDLRLAGEEAWLKGVNPELAEAVKKIIKTIRRYLEGSPYDGSEKPIPRYIIAEIFSQIAPEVQLLVNALDTEGKYGFLKHIKKLNLNSLAMLSKNYNENDKLWKELENEGYVYLE
notes: RIP (ORF145) of Acidianus two-tailed virus (ATV); 145 aa printed; residues 10–127 resolved in the RNAP–RIP structure; source: E. coli BL21 pLyS, purified (heat step 60 °C, Ni-column, TEV cleavage, second Ni-column); not shown: 6×His, N-terminal, cleaved
Take B3: the binding result in assay [5] and in assay [6] was “binds” each time.

(Values after paper PMC8448823, “Structural basis of RNA polymerase inhibition by viral and host factors” (Nature Communications, 2021).)
